Data reported in US20120058906A1 (published 2012).

B1: Fab VH1-46_IGHD6-6*01_IGHJ1*01 & L6_IGKJ1*01 (Fab, V domains shown)
VH: QVQLVQSGAEVKKPGASVKVSCKASGYTFTSYYMHWVRQAPGQGLEWMGIINPSGGSTSYAQKFQGRVTMTRDTSTSTVYMELSSLRSEDTAVYYCAREEYSSSSAEYFQHWGQGTLVTVSS
VL: not shown
notes: Expressed in E. coli as Fab: heavy chain with CH1 plus Flag and His tags from Plasmid A, kappa light chain constant region from Plasmid C; also called Fab No. 1
B2: Fab VH5-51_IGHD5-18*01>3_IGHJ4*01_G100R & V3-4_IGLJ1*01 (Fab, V domains shown)
VH: EVQLVQSGAEVKKPGESLKISCKGSGYSFTSYWIGWVRQMPGKGLEWMGIIYPGDSDTRYSPSFQGQVTISADKSISTAYLQWSSLKASDTAMYYCARRRYSYGYDYFDYWGQGTLVTVSS
VL: QTVVTQEPSFSVSPGGTVTLTCGLSSGSVSTSYYPSWYQQTPGQAPRTLIYSTNTRSSGVPDRFSGSILGNKAALTITGAQADDESDYYCVLYMGSGISYVFGTGTKVTVL
notes: It was expressed as a Fab: CH1 with tags from Plasmid A and lambda CL from Plasmid E; also called Fab No. 23

Key:
[1] = target: T1, Recombinant Human DLL4 (R&D Systems Cat#1506-D4/CF) (human, UniProt Q9NR61 27-524); assay: MSD ECL titration, Fab 595.8 nM, blank 285
T1 construct: Bought recombinant protein; also called rHuman DLL4; delta-like protein 4

[2] = target: T2, rHuman P-Cadherin/Fc Chimera, CF (R&D Systems Cat#861-PC) (human, UniProt P22223 108-654); assay: MSD ECL titration, Fab 148.9 nM, blank 218
T2 construct: Bought Fc chimera; Fc part of the bought chimera not given

[3] = target: T3, rHuman ErbB2/Fc Chimera, CF (R&D Systems Cat#1129-ER) (human, UniProt P04626 23-652); assay: MSD ECL titration, Fab 148.9 nM, blank 218
T3 construct: Bought Fc chimera; also called HER2/neu; Fc part of the bought chimera not given

[4] = target: T1, Recombinant Human DLL4 (R&D Systems …); assay: MSD ECL titration, Fab 148.9 nM, blank 218
[5] = target: T4, rHuman Erythropoietin R/Fc Chimera, CF (R&D Systems Cat#963-ER) (human, UniProt P19235 25-250); assay: MSD ECL titration, Fab 148.9 nM, blank 218
T4 construct: Bought Fc chimera; also called EPO R/Fc; EPOR; Fc part of the bought chimera not given
T4 sequence: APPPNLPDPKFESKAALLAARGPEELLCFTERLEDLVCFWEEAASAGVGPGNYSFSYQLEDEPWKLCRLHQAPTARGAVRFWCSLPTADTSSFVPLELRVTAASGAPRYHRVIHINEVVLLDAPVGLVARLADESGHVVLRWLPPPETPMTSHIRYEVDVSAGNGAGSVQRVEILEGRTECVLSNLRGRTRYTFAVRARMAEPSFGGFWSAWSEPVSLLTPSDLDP

[6] = target: T5, rHuman HGF R/c-MET/Fc Chimera, CF (R&D Systems Cat#358-MT/CF) (human, UniProt P08581 25-932); assay: MSD ECL titration, Fab 148.9 nM, blank 218
T5 construct: Bought Fc chimera; also called HGF R/Fc; Fc part of the bought chimera not given

[7] = target: T6, rHuman EGF R/Fc Chimera, CF (R&D Systems Cat#344-ER) (human, UniProt P00533 25-645); assay: MSD ECL titration, Fab 148.9 nM, blank 218
T6 construct: Bought Fc chimera; Fc part of the bought chimera not given

[8] = target: T7, rHuman IGF-1 sR (insulin-like growth factor-1 soluble receptor), CF (R&D Systems Cat#391-GR) (human, UniProt P08069 31-932); assay: MSD ECL titration, Fab 148.9 nM, blank 218
T7 construct: Bought soluble receptor; also called IGF-R1

[9] = target: T8, rHuman Notch-1/Fc Chimera, CF (R&D Systems Cat#3647-TK) (human, UniProt P46531 19-526); assay: MSD ECL titration, Fab 148.9 nM, blank 218
T8 construct: Bought Fc chimera; Fc part of the bought chimera not given

[10] = target: T9, rHuman CD44/Fc Chimera, CF (R&D Systems Cat#3660-CD) (human, UniProt P16070 21-220); assay: MSD ECL titration, Fab 148.9 nM, blank 218
T9 construct: Bought Fc chimera; Fc part of the bought chimera not given

[11] = target: T3, rHuman ErbB2/Fc Chimera, CF (R&D …); assay: MSD ECL titration, Fab 37.2 nM, blank 199
[12] = target: T10, rHuman HGF R/c-MET/Fc Chimera, CF (R&D Systems Cat#358-MT/CF) (human, UniProt P08581 25-932); assay: MSD ECL multi-spot plate, antigen immobilized; Fab 40 nM; blank spot 502
T10 construct: Purchased Fc chimera; also called HGF R/Fc; not shown: Fc portion of the purchased chimera

[13] = target: T11, rHuman ErbB2/Fc Chimera, CF (R&D Systems Cat#1129-ER) (human, UniProt P04626 23-652); assay: as above
T11 construct: Purchased Fc chimera; also called HER2/neu; not shown: Fc portion of the purchased chimera

[14] = target: T12, rHuman P-Cadherin/Fc Chimera, CF (R&D Systems Cat#861-PC) (human, UniProt P22223 108-654); assay: as above
T12 construct: Purchased Fc chimera; not shown: Fc portion of the purchased chimera

[15] = target: T13, rHuman Erythropoietin R/Fc Chimera, CF (R&D Systems Cat#963-ER) (human, UniProt P19235 25-250); assay: as above
T13 construct: Purchased Fc chimera; also called EPO R/Fc; Epo R; not shown: Fc portion of the purchased chimera
T13 sequence: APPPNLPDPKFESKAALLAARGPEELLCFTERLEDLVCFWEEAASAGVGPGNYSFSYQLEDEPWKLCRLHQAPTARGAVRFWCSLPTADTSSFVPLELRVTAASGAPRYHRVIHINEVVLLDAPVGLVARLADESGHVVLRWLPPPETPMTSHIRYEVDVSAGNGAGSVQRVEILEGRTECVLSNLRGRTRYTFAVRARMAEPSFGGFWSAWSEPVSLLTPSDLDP

[16] = target: T14, rHuman CD44/Fc Chimera, CF (R&D Systems Cat#3660-CD) (human, UniProt P16070 21-220); assay: as above
T14 construct: Purchased Fc chimera; not shown: Fc portion of the purchased chimera

[17] = target: T15, rHuman IGF-1 sR (IGF-1 sR), CF (R&D Systems Cat#391-GR) (human, UniProt P08069 31-932); assay: as above
T15 construct: Purchased soluble receptor; also called insulin-like growth factor-1 soluble receptor; IGF-R1

[18] = target: T16, rHuman EGF R/Fc Chimera, CF (R&D Systems Cat#344-ER) (human, UniProt P00533 25-645); assay: as above
T16 construct: Purchased Fc chimera; not shown: Fc portion of the purchased chimera

[19] = target: T17, rHuman Notch-1/Fc Chimera, CF (R&D Systems Cat#3647-TK) (human, UniProt P46531 19-526); assay: as above
T17 construct: Purchased Fc chimera; not shown: Fc portion of the purchased chimera

[20] = target: T18, Recombinant Human DLL4 (R&D Systems Cat#1506-D4/CF) (human, UniProt Q9NR61 27-524); assay: as above
T18 construct: Purchased recombinant protein; also called delta-like protein 4
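Further: blank spot per well as comparator with Hit at signal to blank ratio of 4 or more.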

| Binder | ECL signal [1] | ECL signal [2] | ECL signal [3] | ECL signal [4] | ECL signal [5] | ECL signal [6] | ECL signal [7] | ECL signal [8] | ECL signal [9] | ECL signal [10] | ECL signal [11] | ECL signal [12] | ECL signal [13] | ECL signal [14] | ECL signal [15] | ECL signal [16] | ECL signal [17] | ECL signal [18] | ECL signal [19] | ECL signal [20] |
| --- | --- | --- | --- | --- | --- | --- | --- | --- | --- | --- | --- | --- | --- | --- | --- | --- | --- | --- | --- | --- |
| B1 | 17200 | 687 | 247 | 16300 | 373 | 205 | 290 | 322 | 375 | 348 | 384 |  |  |  |  |  |  |  |  |  |
| B2 |  |  |  |  |  |  |  |  |  |  |  | 1230 ECL signal | 1420 ECL signal | 1020 ECL signal | 994 ECL signal | 824 ECL signal | 1240 ECL signal | 1110 ECL signal | 1010 ECL signal | 19500 ECL signal |
